The data set can be described thus: soluble on expression in E. coli; label from the status in PepcDB or PDB records.
Take “MQFNNKPLIGVVHLPPLPGSPGYKGELDEVIDRAISDAAKYQEAGFDAIILENYGDFPYSKTVGKETVSAFSVVANEVKREIALPLGINVLRNDCIAAYSIAYSIKADFIRVNVLTGVAFTDQGIVEGCARELAELRTRLPSRIDVLADVHVKHATHFSNFENALLDTIERGGADAVIVTGSRTGSEVDIQELITAKRISPVPVLVGSGVNPRNIKLFWRYSDGFIVGTWVKEGGRTINEVSIERATKLAKLVKSLREGLEHHHHHH”: the “soluble on expression in E. coli” value is given as “not soluble”.

For “MEGVRLGWRGLSREGRGGAWHAAERTRPCTQRVPPSSQKIALQLKATLENVTNLRPVGEDFRWYLKMKCGNCGEISEKWQYIRLMDSVALKGGRGSASMVQKCKLCARENSIDILSSTIKAYNAEDNEKFKTIVEFECRGLEPVDFQPQAGFAADGVESGTVFSDINLQEKDWTDYDEKAQESVGIFEVTHQFVKC”, the “soluble on expression in E. coli” value is reported as “soluble”.

“MAHHHHHHMSEAALKREIALQEASDVVDNKSRVLPKSPADTRERTHEVVAATEPFEHPISLRSKVSAYVTLALLFLFARLRESYRQFFPNDESHVRPGYAPIVKDFDHYWNRRFYRRVRDCFMRPIDSRPSRVIGVMERVSKDNNQTFEYSGRIVPAVNMGSYNYLGFAEDTQSITHEVLDSIDDYGLASCSAPQGLGQSALVSRLEHEFAEFLGKEDAIVCGMGFATNFRGLPTLFGKETLVLSDSLNHSSLVNGVRSSGAKVKVFQHNHFGQVEKCLREGVVLGQDPCGEYKPYKRIVIIIEGIYSMEGEIVNLKKFVELKKKYKALLFVDEAHSIGAIGRTGRGVCEHTGVDPKDVDVLMGTFTKSFGSIGGYIAADKTLVRYLRQHSSIALHCDPLAPPCAQQVLSVLHVLLGKDGTDLGEKRIRQLKDNSSFFRRGLMDLGLVVLGDDSSPVVPVMCYSIGRLSALSRLCLERGVAIVIVGYPATPLLQGRVRFCVSACHTREDLQRTLDVIRELKGYVCMEDSTNPLR”: the “soluble on expression in E. coli” value is on record as “not soluble”.

As for “MGSDKIHHHHHHMINNEKYKELIKYLKSLGKVVLAFSGGVDSTFLLKASKEALGDNVKAVTILSPYIPKWEIREAEELVKELGVEHEIIKAPIIDSIKFNPEDRCYLCKTAVFSMILDAAKRQGYDCVIDGTNFDDIKDYRPGLRALKELSVKSPLLECKLTKAEIRTFSKELGLKTWDKPPYACLLTRIPYGNELKVEDFEKIERAERYMMSIGFRAIRVRCHDDLARIEVAREDRSKLFNEELLDTISENIKKCGFKYVSLDLQGYRVGSFNETIAKISDK”, the “soluble on expression in E. coli” value was “not soluble”.

As for “MGGFLVLNSSNNVVRTVPSKKRKHPEYKSKGSQIRELISGIRSDNLREAVRLPQGVDINEWFAMNNFFNQISLLYATLEEFCTQTTCPVMNAGRYEYRWADGTTITKPKTVSAPKYVEYLIDWVETEIDNEAIFPKNPGEPFPPNFEDFVKRILRKLFRVYAHIYYSHFHEIVALNEQAHLNTCFKHFLLFVSEFQLVDKEKEMAPIKSLVETMLDQ”, the “soluble on expression in E. coli” value is listed as “soluble”.

On to “MSPTLTHLALHVPDLDACIAFYETFCGMRVIHRRPGKGSQIVWMAEPGQEQRFIFVIMPGGQPRNLASDDYSHFGFALSSRAAVDDLARRAEAAGCLVWAPRDEPYPVGYYCGLRDPAGNYVEFSYGQPLGPGSEALPIP”, for which the “soluble on expression in E. coli” value is reported as “not soluble”.

Turning to “MGSDKIHHHHHHMDCFYDYHKSLSPDEYVWDYEEFLYYGSDKFIKDVFVDGGVDIALSQPAYLQFFFREPFGNTNEFGTMALKYPYRFIIGTRWDPREGEEGKRQLEEDVRKYRVKPWQMRHVKLYTAEWKEVNGGISRGWRLDSPQAFEFLEFNRELGIDIQVPHKGPTVWPLSKDAFDVHDVDTAASSFPELRFVVTHVGLPRIDDFSWIGVQDKNVYAGLAVATAFIRKRPKYFAEIMAELLFWLGPDRIIFGSDYAIWHPKWIIEDFIKFELPRDLESEYGVELTLENKKKILGENAARLWGIDVEEAKKAVREDQIASRYGAKPRVFKVEG”, the “soluble on expression in E. coli” value is listed as “not soluble”.

On to “MIETLEENLEKVFKAIRSLIIEDMAKDMPMLALTLELLQSIPGIGLISAVTILAEIGDFSAFSKPGKLVAYFGIDPSVMQSGEFTGTQNKMSKRGSRLLRRVLFTIALANIRTKRDKTACNPVLMEYYKNKCQSKPKKVALGAVMRKLVNYIFAVLRDRKPYELRSPQEHAQMLAAKHTAA”, for which the “soluble on expression in E. coli” value is “not soluble”.

As to “MIKGTGHMIVNIANDRGMSIDSIRKTIKESVLIAYKKYFGSNENAFIKFDDDTGDLSVYAKKKIVKEVKDSLLEILEKDISKENIVEGDYAYIEINPKVFDRLSIQVAKQRTKNDLQGIEDNEILSEFKSKLNKVVIGYVQQNRNGDLYVNLGNTDGIIPKKYQSPLEHHHHHH”, the “soluble on expression in E. coli” value was “not soluble”.

As for “MGSDKIHHHHHHMALKVLFTGADGYVGALLGPYLLEKGIEAVGLDTGFYRKGWLYPTSAPRPAVITKDIRQVTVADLEGFDAVAHLAELSNDPLGQQSPGLTHEINHGGSMHLAEMARKAGARRFVYMSSCSVYGVGQPEQILDETSPVNPQTAYAECKVKVEEDLTRRADSDFEPCFLRNATAYGASPRQRFDIVLNDLCGLAWTTNKITLQSDGSPWRPLVHALDMCQAVWRSLTAPADAIRGQAYNVGSNDQNYRVIEIARIVADSFPGCELEVGQPSADNRSYRVNFDKIQRVLPEFQCEWTAEKGARQMRQVFERIAMTPEEFRAEPYTRLKMLMRLRASKLLDDKLFWANPMVEAVA”, the “soluble on expression in E. coli” value is listed as “not soluble”.

As for “MSLYSTDSGNLFHAGRILVVLVGLPATSKTLLSVAITRYTRWLGVRTKSFHFSEYKESAKNIPSDYFCVVPTSKEGVAFVEKLRMQMLNDILAFFNDLSGQLAIYDALNIRKIDRKNLETTFSEIGVKVLFIESIVSDQEIMNRNIALALESNDYKGLSTDEAIDEYMRRLSVNEPYYEMMTHDEELSYIKYINLGKQIIVKDNIHGYLVNKIVFFLMNLRQKKGCVYFARCGTSDKDNYIHDEELNEEGIHYSQVLKDFVLQRIKQKRQAKKNSDSLVEVIDGSHDEDLKTSLIVWTGPRKRTHDTALFFSKEGIKVQQRSELRQLNPGSIADLTDQQIMDKFPSEYKESLKDPYHFRFPRAESYHDLAVRMEPLLLEMEHTSKDILIIAHESTLRVLYGYLMACTCVELPNLNFTRDKLVEISFSPFCNTVELLNIPLTEGHHHHHH”, the “soluble on expression in E. coli” value was “soluble”.

“MSLYHDGPIEVLPGVWLGAEESVGRWDIWAGNTAGNTVRVVNVAQEVEDPFDAAGPGRVSGWPRPSALPAETAKRRMKLRTYPAVVGDGTRPHVEYCHARWSHGELGLADLPADACLGDVLYPRAPENNEGLWRFWETIRWMEEGRQGGTPILIHSQCGVSRSATLAIAYTMALAAAGAMPQYLGHIRVMQDAYDFVKGKSCWIGPNHSLVFQLVDFARNLTTLLSEGHHHHHH”: the “soluble on expression in E. coli” value was “soluble”.

“GPGSMADSNPTKEGTSSAPLHPLKDKWFVFYIPASKGNEYEHETKELGYVSTIEEVYSTINTLPPITLLPNDDNLVFSRNKIEPQFESFPGGMRFSIFCKTKTQCREALTYVVAVVLGEAIGRDACKGECVCDIVRIGHKGSAMYKESVRIEVWAHQSPYNTAMEKYLVSTLSAIPGITVSARPFK”: the “soluble on expression in E. coli” value is recorded as “soluble”.

For the sequence “MVKAVIFTDFDGTVTLEDSNDYLTDTLGFGKEKRLKVFEGVLDDTKSFRQGFMEMLESIHTPFPECIKILEKKIRLDPGFKDTFEWAQENDVPVIVVSSGMKPIIKVLLTRLVGQESIHKIDIVSNEVEIDAHDQWKIIYKDESPFGHDKSRSIDAYKKKFESTLKAGEQRPVYFYCGDGVSDLSAAKECDLLFAKRGKDLVTYCKKQNVPFHEFDTFKDILASMKQVLAGEKTVAELMEN”, the “soluble on expression in E. coli” value is “soluble”.

For “MNVEQQYIDLFSQTEAMICKHSAEVLNAPRAAAFADFERLGFPTRKMEKYKYTDISKYFEPDYGLNLNRLQIPVNPYEVFKCDVPNMSTALYFVVNDAFYNKALPKTHLPEGVIFGSLKEVAAEHPELVKKYYGKLADTSKDGITAFNTAFAQDGVIFYVPKNVIVEKPIQLVNILRADVNFMVNRRVLIILEDGAQARLLICDHAMDNVNFLATQVIEVFAGENAVFDMYELEETHTSTVRISNLYVKQEANSNVLLNGMTLHNGTTRNTTEVLLAGEGAEINLCGMAIADKNQHVDNNTSIDHAVPNCTSNELFKYVLDDQSTGAFAGLVLVRPDAQHTNSQQTNRNLCATRDARMYTQPQLEIYADDVKCSHGATVGQLDENALFYMRARGIAEKEARLLLMFAFVNEVIDTIRLDALKDRLHLLVEKRFRGELNKCQGCAICK”, the “soluble on expression in E. coli” value is given as “not soluble”.

Values taken from the DeepSol protein solubility set.
